Measured values from patent publication US20180371095A1 (published 2018).

Target: T1, HEK293 cells transfected with recombinant human VSIG3-eGFP (human, UniProt Q5DX21 23-431)
T1 construct: whole, on cells; not shown: eGFP
T1 sequence (looked up): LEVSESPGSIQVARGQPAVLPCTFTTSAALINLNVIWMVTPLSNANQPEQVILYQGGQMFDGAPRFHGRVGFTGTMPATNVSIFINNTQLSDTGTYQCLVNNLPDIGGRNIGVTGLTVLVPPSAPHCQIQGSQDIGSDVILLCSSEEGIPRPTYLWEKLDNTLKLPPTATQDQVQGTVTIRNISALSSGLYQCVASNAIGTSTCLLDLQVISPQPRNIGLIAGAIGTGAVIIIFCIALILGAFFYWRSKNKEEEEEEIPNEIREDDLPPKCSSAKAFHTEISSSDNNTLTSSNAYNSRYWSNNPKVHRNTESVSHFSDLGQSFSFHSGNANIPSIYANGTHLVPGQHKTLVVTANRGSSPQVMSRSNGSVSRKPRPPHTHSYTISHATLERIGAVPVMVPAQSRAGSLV
Experiment: flow cytometry, anti-Fc APC detection

binding result: no binding
B1: recombinant human Siglec-7 (rhSiglec-7)/Fc protein (Fc fusion, UniProt Q9Y286 19-357, looked up)
chain: QKSNRKDYSLTMQSSVTVQEGMCVHVRCSFSYPVDSQTDSDPVHGYWFRAGNDISWKAPVATNNPAWAVQEETRDRFHLLGDPQTKNCTLSIRDARMSDAGRYFFRMEKGNIKWNYKYDQLSVNVTALTHRPNILIPGTLESGCFQNLTCSVPWACEQGTPPMISWMGTSVSPLHPSTTRSSVLTLIPQPQHHGTSLTCQVTLPGAGVTTNRTIQLNVSYPPQNLTVTVFQGEGTASTALGNSSSLSVLEGQSLRLVCAVDSNPPARLSWTWRSLTLYPSQPSNPLVLELQVHLGDEGEFTCRAQNSLGSQHVSLNLSLQQEYTGKMRPVSGVLLGAVG
notes: also called Fc-tagged Siglec7 protein; human Siglec-7 Fc protein; not shown: human IgG Fc region
